Measurements reported in the supplement of paper PMC10567573.

B1: CDC25A (parent)
chain: TVAGKHQDLKYISPEIMASVLNGK
B2: TEKT4 (parent)
chain: LREKLLEAEQSLRNLEDIHMSLEK

Variants of: B1
Assay: protein stability index of a GFP-peptide fusion (GPS, HEK-293T) (PSI 1-6); higher = more stable
Conditions: c terminus: a fixed tail appended
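Note: lentivirally expressed fusions sorted by FACS into six bins by GFP to DsRed ratio, PSI derived from sequencing read proportions per bin multiplied by bin number.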

In order of rising protein stability index:
1. T1F  1.9
2. T1W  2.06
3. T1L  2.15
4. T1M  2.34
5. T1R  2.52
6. T1V  2.52
7. T1I  2.6
8. T1H  2.89
9. T1G  3.06
10. T1C  3.07
11. T1S  3.14
12. T1K  3.17
13. T1Q  3.22
14. T1A  3.23
15. T1D  3.29
16. T1P  3.34
17. T1E  3.45
18. T1N  3.69

Variants of: B2
Assay: as above
Conditions: c terminus: a fixed tail appended

In order of rising protein stability index:
1. R2F  1.16
2. K24F  1.25
3. K4F  1.43
4. D17Y  1.45
5. E23N  1.47
6. E16L  1.47
7. S11W  1.48
8. R2C  1.48
9. L22W  1.55
10. E23G  1.58
11. A8L  1.63
12. A8C  1.64
13. N14L  1.64
14. K24Y  1.68
15. L12F  1.69
16. E23T  1.71
17. M20F  1.72
18. E9I  1.75
19. E7L  1.75
20. H19A  1.76
21. D17F  1.79
22. M20Q  1.79
23. H19I  1.81
24. E3W  1.81
25. S11L  1.83
26. E23I  1.88
27. R13S  1.89
28. R2Q  1.9
29. E23Y  1.93
30. R2L  1.93
31. E16M  1.93
32. I18M  1.95
33. S11F  1.96
34. H19L  1.96
35. E9Q  1.98
36. L1V  1.98
37. E3D  2.02
38. E16V  2.06
39. E23V  2.07
40. M20K  2.07
41. N14S  2.07
42. L22Y  2.08
43. Q10V  2.08
44. E7Y  2.08
45. K24N  2.13
46. E23S  2.15
47. M20E  2.17
48. A8G  2.2
49. K4A  2.21
50. E16T  2.21
51. R13K  2.22
52. E16S  2.25
53. N14C  2.26
54. E3N  2.27
55. N14D  2.27
56. E3A  2.29
57. D17H  2.29
58. I18Y  2.3
59. D17S  2.33
60. L15R  2.38
61. K24Q  2.39
62. H19R  2.42
63. D17M  2.42
64. E9T  2.44
65. L5C  2.44
66. D17C  2.46
67. L15T  2.47
68. E3S  2.47
69. H19V  2.51
70. K4V  2.51
71. S11T  2.55
72. N14V  2.56
73. E9H  2.58
74. E3L  2.58
75. M20L  2.58
76. R13I  2.6
77. K4S  2.63
78. E23L  2.65
79. L5V  2.66
80. E3R  2.69
81. L22M  2.7
82. D17P  2.7
83. L15K  2.71
84. L15E  2.71
85. E3H  2.71
86. Q10G  2.71
87. A8Q  2.72
88. A8V  2.72
89. E23K  2.74
90. S11H  2.75
91. Q10N  2.76
92. E9L  2.77
93. L15C  2.81
94. L6E  2.84
95. M20I  2.86
96. A8D  2.86
97. E3M  2.88
98. K4R  2.88
99. L6N  2.89
100. H19E  2.91
101. H19N  2.93
102. E7T  2.93
103. K24T  2.98
104. L22A  3.01
105. K4H  3.01
106. I18F  3.02
107. L6A  3.11
108. E9N  3.15
109. L15A  3.2
110. L22N  3.22
111. Q10L  3.22
112. S21G  3.25
113. K4N  3.27
114. L5F  3.27
115. M20A  3.28
116. L6K  3.31
117. I18D  3.33
118. L15S  3.36
119. E9D  3.4
120. H19S  3.43
121. K4G  3.45
122. L1R  3.52
123. R2K  3.61
124. L12S  3.62
125. A8H  3.67
126. I18S  3.84
127. L5Y  3.86
128. H19Q  3.91
129. A8R  3.92
130. N14E  3.99
131. A8K  4.01
132. L5W  4.04
133. L5H  4.08
134. E7P  4.17
135. L6S  4.23
136. L1T  4.24
137. L12H  4.44
138. L5R  4.49
139. L5A  4.49
140. A8P  4.59
141. L12P  4.6
142. Q10P  4.65
143. L1N  4.65
144. L5T  4.67
145. L5S  4.68
146. L5P  4.75
147. L1S  4.82
148. L5E  5.05
149. L5D  5.1
